To fix the notation:
B1: HPV16 E7/12-20 peptide … (peptide)
peptide: MLDLQPETT
modifications: not checked
B2: HPV16 E7/11-20 peptide … (peptide)
peptide: YMLDLQPETT
modifications: not checked
B3: HPV16 E7/11-18 peptide YMLDLQPE (peptide)
peptide: YMLDLQPE
modifications: not checked
B4: HPV16 E7/12-19 peptide MLDLQPET (peptide)
peptide: MLDLQPET
modifications: not checked
B5: HPV16 E7/11-21 peptide … (peptide)
peptide: YMLDLQPETTD
modifications: not checked
B6: HPV16 E7/18-25 peptide ETTDLYCY (peptide)
peptide: ETTDLYCY
modifications: not checked
B7: HPV16 E7/14-23 peptide … (peptide)
peptide: DLQPETTDLY
modifications: not checked

One experiment has as its target HLA-A2 (human). Kind of experiment: experimental peptide-HLA binding affinity; method not described.
The molecule B1 had a Binding affinity of 3.6 µM. Molecule B2 had a Binding affinity of 2.19 µM. The same measure, in the same setting: for B3 the value was 8.07 µM. Still for that read-out and setting: under B4 stands 53.7 µM; under B5, 2.37 µM.

For a further experiment, the target named is HLA-A1 (human). The description is as above.
The molecule B6 returned a Binding affinity of 11.5 µM. B7 had a Binding affinity of 1.62 µM.
